Several values for one entry are separate records, joined by “and”; a condition that tells them apart may be missing. Identical values can stand only once.
Key:
[1] = ATPase activity, luciferin-luciferase luminescence assay (geldanamycin inhibitable); format: biochemical; details: for ATPase activity of SEC fractions (rate of ATP hydrolysis per mg protein): SEC fractions of human tumor derived gp96-peptide complex (FIG. 6); for ATPase: gp96 loaded with AH1 19mer peptide
Method: Finally, ATPase activity of each fraction was determined based on the loss of ATP using a luciferin-luciferase luminescence assay. Values are reported as the rate of ATP hydrolysis per mg protein. […] The ATPase activity was in the dimer containing fractions with minimal activity in the high molecular weight aggregate and monomer fractions.
ATPase activity was measured as the loss of ATP following 4 hr. of incubation at 37° C. using a luciferin-luciferase luminescence assay. Values are reported as the rate of ATP hydrolysis per mg protein and represent only the activity that is geldanamycin inhibitable to ensure specificity for the hsp90 family of heat shock proteins.
The assay is performed as follows. Gp96 samples (2 μL, 500 μg/mL in PBS) were mixed with 2 μL of a solution comprising a 10 fold molar excess ATP in PBS containing 12.5 mM MgCl2, and either 20% (v/v) DMSO or DMSO containing […] geldanamycin. This mixture was incubated at 37° C. for 4 hr. Samples were then diluted to 100 μL with PBS and the ATP contained in 50 μL of each sample was quantified using the ROCHE CLSII bioluminescence ATP assay kit. Bioluminescence was measured using a Molecular Devices Lmax luminometer. The difference in ATP concentration between uninhibited and Geldanamycin-inhibited measurements reflects the amount of ATP hydrolysis specific to gp96. Rates were calculated from this differential and expressed as nmoles of ATP hydrolyzed per mg protein per hr.

[2] = test system: AH1 peptide-specific CTLs co-cultured with RAW264.7 cells; test: hybrid antigen re-presentation assay (IFN-γ by ELISA); format: cell-based, mouse; details: for IFN-γ response (T-cell stimulation): 10 μg/mL or diluted with unloaded gp96 at 1:3, 1:10 or 1:30, APCs and CTLs (FIG. 7); for ability to stimulate T-cells: heated at 60° C. for 10 min
Method: For this purpose, a hybrid antigen re-presentation bioassay system was developed in which the mouse antigen, AH1 peptide, for which a mouse CD8 T-cell line is available, was exchanged in vitro onto human tumor derived hsp. The gp96-peptide complex was then tested for its ability to facilitate antigen re-presentation and antigen-specific T-cell stimulation.
The antigen presenting cell line, RAW264.7 (ATCC #TIB-71), is an Abelson murine leukemia virus transformed macrophage cell line, which originated from the BALB/c strain (H-2^d). The CTL line specific for the murine CT26 tumor derived AH1 epitope was obtained from P. Srivastava (U. of Conn. Medical Center). They were re-stimulated on a weekly basis with the AH1 peptide plus irradiated BALB/c splenocytes. The 9 amino acid AH1 peptide epitope ([…]) and the 19mer peptide ([…]) which contained this epitope were obtained from Sigma Genosys 1442 lake Front Circle, The Woodlands, Tex. 77380-3600.
AH1 19mer peptide was added to purified gp96 preparations at a ratio of 50:1 peptide to protein and the mixture incubated at 37° C. for 30 mm. Unbound peptide was removed by 4 cycles of spin dialysis with 10 volumes of PBS using 30K MWCO Centricon spin filter units (Millipore). Total protein was determined by the Bradford assay.
The in vitro antigen re-presentation assay has been described. Briefly, 10^4 AH1 peptide-specific CTLs (day 8 post stimulation) were co-cultured with 10^4 RAW264.7 cells in 96-well flat bottom plates. In vitro loaded gp96 samples at 10 μg/mL were analyzed neat or diluted with unloaded gp96 at the indicated amounts in order to maintain constant protein concentration. Protein samples and controls were added to the wells and incubated at 37° C. for 18 hr. Following centrifugation, the supernatants were harvested for analysis of IFN-γ levels by ELISA (R&D Systems). Reported values represent the average of six replicates. AH1 9mer peptide served as a positive control and unloaded gp96, AH1 19mer peptide and media alone as negative controls. Additional negative controls were provided by applying identical sets of samples to plates that contained either CTLs or APCs only.
The hybrid re-presentation assay measures the ability of human gp96, loaded with AH1 19mer peptide, to deliver antigen to mouse APCs to facilitate re-presentation leading to simulation of antigen specific T-cells. […] The second and third panels are controls for CTLs and APCs alone. Each data set contains media alone, unloaded gp96 and AH1 19mer as negative controls and AH1 9mer peptide, which can exchange directly onto surface MHC I molecules, as the positive control. Gp96/AH1 19mer complex was applied at 10 μg/mL or diluted with unloaded gp96 at 1:3, 1:10 or 1:30.

[3] = % dimer by size exclusion chromatography (SEC); format: physicochemical; details: for % Dimer: Superose 6 column, gp96 loaded with AH1 19mer peptide; for dimeric form by SEC: mild heat treatment
Method: Gp96-peptide complex was isolated from murine CT-26 tumors. Separate aliquots of each preparation were either maintained at 4° C. (untreated) or subjected to mild heat treatment to denature the complex.
HPLC size exclusion chromatography is currently being optimized and has been run under a few different formats. The column was either a TSK 3000SWXL (Toso Haus) or a Superose 6 (Amersham Pharmacia) equilibrated in 10 mM phosphate buffer, pH 7.1, with 300 mM NaCl. All experiments were run at room temperature on a Waters Alliance or HP 1100 HPLC systems at a flow rate of 0.5 mL/min. The following results for human tumor derived gp96 (reported in Table 3, below) were all analyzed on the Superose 6 column. % dimer values represent the area percent of the dimer peak relative to total peak area.

NECA ligand binding = test: NECA ligand binding
Method: Dimer content also correlates with the ability of gp96 to bind NECA. Using the gp96-peptide complex isolated from CT-26 tumors, aliquots of each preparation were also analyzed for NECA ligand binding.

Tumor specific T-cell = test: antigen re-presentation and T-cell activation measured by IFN-γ release; format: cell-based, murine
Method: Re-presentation of antigenic peptides by hsps is another biological activity of significance. […] Immune response mediated by RAW264.7 APCs and CTLs specific to the peptide of the gp96 complex was measured by IFN-γ levels secreted by the CTLs. IFN-γ is a cytokine that is known in the art to be an indicator of general immune status; it also plays a major role in tumor recognition and rejection. […] A re-presentation assay is described in section 8, by way of example and not limitation.
The same samples were then analyzed for antigen re-presentation and T-cell activation as measured by IFN-γ expression.

## Fractions 8-10: SEC fractions of human ovarian tumor derived gp96-peptide complex representing the dimer
[1]
  ATPase activity of SEC fractions (rate of ATP hydrolysis per mg protein): highest

## fractions 2-5: SEC fractions of human ovarian tumor derived gp96-peptide complex containing mostly higher molecular weight aggregates
[1]
  ATPase activity of SEC fractions (rate of ATP hydrolysis per mg protein): significantly less

## fractions 11-15: SEC fractions of human ovarian tumor derived gp96-peptide complex: monomeric species, degradation products and lower molecular weight species
[1]
  ATPase activity of SEC fractions (rate of ATP hydrolysis per mg protein): significantly less

## human endometrial: gp96 purified from human endometrial tumor, loaded in vitro with AH1 19mer peptide (RVTYHSPSYVYHQFERRAK)
[1]; heated at 60° C. for 10 min
  ATPase: 0 nmol/mg/h
[1]; untreated
  ATPase: 8.5 ± 0.3 nmol/mg/h and 9.4 ± 0.5 nmol/mg/h
[2]
  IFN-γ response (T-cell stimulation): dose dependent IFN-γ response
  ability to stimulate T-cells: abolished
[3]; heated at 60° C. for 10 min
  % Dimer: 0%
[3]; untreated
  % Dimer: 86% and 83%

## human gp96-peptide complex: human gp96-peptide complex used in accelerated stability (mild heat) study
[1]; mild heat treatment
  ATPase activity: abolished
[3]
  dimeric form by SEC: converted dimeric protein to high molecular weight aggregates

## human renal: gp96 purified from human renal cell carcinoma, loaded in vitro with AH1 19mer peptide
[1]; heated at 60° C. for 10 min
  ATPase: 0 nmol/mg/h
[1]; untreated
  ATPase: 10.3 ± 0.1 nmol/mg/h
[2]
  IFN-γ response (T-cell stimulation): specific and dose dependent stimulation of T-cells
  ability to stimulate T-cells: abrogated
[3]; heated at 60° C. for 10 min
  % Dimer: 0%
[3]; untreated
  % Dimer: 84%

## recombinant gp96: samples of recombinant gp96 incubated at various temperatures for 10 minutes (FIG. 8)
[1]; incubated at the indicated temperatures for 10 minutes (FIG. 8)
  ATPase activity: loss of ATPase activity

## unloaded gp96: human tumor derived gp96 not loaded with AH1 19mer peptide; negative control and diluent
[2]
  IFN-γ response (T-cell stimulation): no stimulation

B1: gp96-peptide complex isolated from CT-26 tumors: Gp96-peptide complex isolated from murine CT-26 tumors; aliquots kept at 4° C. or heat treated (protein, UniProt P08113 22-802, looked up)
Endoplasmin: DDEVDVDGTVEEDLGKSREGSRTDDEVVQREEEAIQLDGLNASQIRELREKSEKFAFQAEVNRMMKLIINSLYKNKEIFLRELISNASDALDKIRLISLTDENALAGNEELTVKIKCDKEKNLLHVTDTGVGMTREELVKNLGTIAKSGTSEFLNKMTEAQEDGQSTSELIGQFGVGFYSAFLVADKVIVTSKHNNDTQHIWESDSNEFSVIADPRGNTLGRGTTITLVLKEEASDYLELDTIKNLVRKYSQFINFPIYVWSSKTETVEEPLEEDEAAKEEKEESDDEAAVEEEEEEKKPKTKKVEKTVWDWELMNDIKPIWQRPSKEVEEDEYKAFYKSFSKESDDPMAYIHFTAEGEVTFKSILFVPTSAPRGLFDEYGSKKSDYIKLYVRRVFITDDFHDMMPKYLNFVKGVVDSDDLPLNVSRETLQQHKLLKVIRKKLVRKTLDMIKKIADEKYNDTFWKEFGTNIKLGVIEDHSNRTRLAKLLRFQSSHHSTDITSLDQYVERMKEKQDKIYFMAGSSRKEAESSPFVERLLKKGYEVIYLTEPVDEYCIQALPEFDGKRFQNVAKEGVKFDESEKTKESREATEKEFEPLLNWMKDKALKDKIEKAVVSQRLTESPCALVASQYGWSGNMERIMKAQAYQTGKDISTNYYASQKKTFEINPRHPLIRDMLRRIKEDEDDKTVMDLAVVLFETATLRSGYLLPDTKAYGDRIERMLRLSLNIDPEAQVEEEPEEEPEDTSEDAEDSEQDEGEEMDAGTEEEEEETEKESTEKDEL
modifications: CT-26 tumor derived, complexed with peptides
notes: Gp96-peptide complex isolated from murine CT-26 tumors; aliquots kept at 4° C. or heat treated
NECA ligand binding; 4° C. (untreated)
  Specific NECA activity: 1.68 μg NECA bound gp96/μg gp96 and 1.96 μg NECA bound gp96/μg gp96 and 3.27 μg NECA bound gp96/μg gp96
NECA ligand binding; 49° C. at 15 min
  Specific NECA activity: 1.97 μg NECA bound gp96/μg gp96
NECA ligand binding; 49° C. at 25 min
  Specific NECA activity: 1.80 μg NECA bound gp96/μg gp96
NECA ligand binding; 49.5° C. at 30 min
  Specific NECA activity: 0.12 μg NECA bound gp96/μg gp96
NECA ligand binding; 60° C. at 30 min
  Specific NECA activity: 0.04 μg NECA bound gp96/μg gp96 and 0.07 μg NECA bound gp96/μg gp96
NECA ligand binding; 60° C. at 60 min
  Specific NECA activity: 0.08 μg NECA bound gp96/μg gp96
NECA ligand binding; 60° C. at 120 min
  Specific NECA activity: 0.10 μg NECA bound gp96/μg gp96
Tumor specific T-cell; 49° C. at 15 min
  Tumor specific T-cell activation (IFN-γ release): 0 pg/mL
Tumor specific T-cell; 49° C. at 25 min
  Tumor specific T-cell activation (IFN-γ release): 0 pg/mL
Tumor specific T-cell; 49.5° C. at 30 min
  Tumor specific T-cell activation (IFN-γ release): 3150 pg/mL
Tumor specific T-cell; 60° C. at 60 min
  Tumor specific T-cell activation (IFN-γ release): 9350 pg/mL
Tumor specific T-cell; 60° C. at 120 min
  Tumor specific T-cell activation (IFN-γ release): 8100 pg/mL
[3]; 4° C. (untreated)
  % Dimer by SEC: 84.44% and 87% and 75.8%
[3]; 49° C. at 15 min
  % Dimer by SEC: 74%
[3]; 49° C. at 25 min
  % Dimer by SEC: 54%
[3]; 49.5° C. at 30 min
  % Dimer by SEC: 0%
[3]; 60° C. at 30 min
  % Dimer by SEC: 0%
[3]; 60° C. at 60 min
  % Dimer by SEC: 0%
[3]; 60° C. at 120 min
  % Dimer by SEC: 0%
[3]
  dimeric form by SEC: rapidly converts to higher molecular weight aggregates

Reference: patent US20050221395A1, “Methods and products based on oligomerization of stress proteins” (priority 2002, published 2005)
